Results published in patent publication US7507716B2, “Method for treating pain with prolactin antagonists” (Board of Regents, The University of Texas System, priority 2005, dated 2009).

B1: PRL: Ovine PRL [oPRL-21, BIO] provided by NHPP; prolactin polypeptide hormone (protein, UniProt P01240 31-229, looked up)
Prolactin: TPVCPNGPGNCQVSLRDLFDRAVMVSHYIHNLSSEMFNEFDKRYAQGKGFITMALNSCHTSSLPTPEDKEQAQQTHHEVLMSLILGLLRSWNDPLYHLVTEVRGMKGVPDAILSRAIEIEEENKRLLEGMEMIFGQVIPGAKETEPYPVWSGLPSLQTKDEDARHSAFYNLLHCLRRDSSKIDTYLKLLNCRIIYNNNC

What was measured:
[1] = system: capsaicin-evoked nocifensive behavior; experiment: Eye-wipe test (corneal capsaicin); assay type: in vivo, rat
Procedure: To whether this effect has relevance to capsaicin-induced nociception in the whole animal, corneal wipe tests were performed. In this test, corneal application of capsaicin induces a brief nocifensive behavior in the trigeminal region of awake animals (Price et al., 2004; Neubert et al., 2005; Tender et al., 2005). The cornea is a specialized tissue innervated by trigeminal sensory neurons including TRPV1 positive C-fibers (Guo et al., 1999). Turning to FIG. 8A, the results of immunohistochemical analysis of corneal cryosections from proestrous females reveal the presence of fibers that stain positive for both PRL-R (green) and TRPV1 (red) (FIG. 8A).
In this test, the effect of PRL pretreatment on capsaicin-induced eye wiping in proestrous rats was examined. PRL (1 μg/ul in saline) or vehicle (40 μl) was applied in the cornea immediately followed by application of 0.01% capsaicin or vehicle (40 μl) and the total time spent grooming the injected eye per 5 min bins was measured by observers blinded to treatment allocation. Data are shown as mean±SEM (n=6/group *=p<0.05 and ***=p<0.001; two-way ANOVA). […] Data are shown as mean±SEM (n=6/group; two-way ANOVA). […] Data are shown as mean±SEM (n=6/group, **=p<0.01; two-way ANOVA). The effect of PRL on capsaicin-mediated nocifensive response was assessed next in male rats, in order to determine whether the influence of PRL-signaling on nociception is conserved between gender. Corneal wipe tests were performed on age-matched male rats essentially as described above. Data in FIG. 8E are shown as mean±SEM (n=6/group, **=p<0.01; two-way ANOVA). Unexpectedly, the capsaicin-mediated nocifensive response profile of male rats is strikingly similar to that of proestrus rats (compare FIG. 8E with FIG. 8B) and estradiol-treated OVX rats (compare FIG. 8E with FIG. 8D), and divergent from that found in control OVX rats treated with vehicle.
Eye-Wipe Test OVX female rats, treated with either vehicle or E2 (5μg/day/10 days), or intact female rats in the proestrous reproductive stage were brought to a quiet, temperature controlled (22-25° C.) behavioral laboratory in individual cages where they were allowed to acclimate for at least 2 h. PRL (1 μg/μl) or vehicle was placed directly onto the right eye in a volume of 40 ul followed by application of 0.01% (40 μl) capsaicin solution as described previously (Price et al. 2004). The resulting behavioral response was measured as time spent grooming or wiping the test eye. The observers were blinded to the treatments and the data were collected in 3 bins of 5 min.

[2] = system: TG neurons; experiment: Patch clamp, capsaicin-induced currents (Icap); assay type: cell-based, rat
Procedure: Since application of PRL rapidly increases capsaicin-induced calcium accumulation and neuropeptide release, the role of PRL in modulating capsaicin-induced currents (Icap) was examined. TRPV1 desensitization of cultured TG neurons was induced through the repeated application of 100 nM capsaicin to the cultures (Vellani et al., 2001; Bonnington and McNaughton, 2003). The sub-maximal concentration of capsaicin used was effective in inducing desensitization and permitted the investigation PRL-evoked re-sensitization or further sensitization of TRPV1. […] Data are presented as mean±SEM of PRL-treated ΔIcap (3rd Icap-2^ndIcap) normalized to vehicle treated ΔIcap, (n=8-12/group, *=p<0.05 and **=p<0.01; two-way ANOVA). […] Acutely dissociated TG neurons from female rats were locally pretreated with vehicle or PRL (40 nM) for 60 sec, washed for 60 sec and subjected to a single capsaicin pulse (40 sec, 0.1 nM-5 μM). Data are shown as mean±SEM (n=12-20/group, *=p<0.05 and ***=p<0.001 vehicle vs. PRL; two-way ANOVA). FIGS. 5C and 5D depict representative traces of Icap recordings from intact (FIG. 5C) and OVX (FIG. 5D) female rat TG neurons. Concentration of applied CAP and PRL are indicated. The duration CAP and PRL treatment was 30 sec and 60 sec, respectively. The magnitude of the second capsaicin-evoked inward currents (Icap) peak was subtracted from the third Icap peak to calculate the difference (ΔIcap). Data were normalized to the vehicle treated ΔIcap.
Patch Clamp Electrophysiology: All recordings were performed in whole-cell voltage-clamp (Vh=−60 mV) configuration. Recordings were acquired at 22-24° C. from the somata of neurons (15-45 pF) using an Axopatch200B amplifier and pCLAMP9.0 software (Axon Instruments, Union City, Calif.). Data were filtered at 0.5 kHz and sampled at 2 kHz. Borosilicate pipettes (Sutter, Novato, Calif.) were polished to resistances of 3-5 MΩ in pipette solution. Access resistance was compensated (40-80%) to 7-10 MΩ values when appropriate. Cell diameters were calculated using d=√[100*Cm/π], where d (μm) is cell diameter and Cm (pF) is membrane capacitance.
Standard external solution (SES) had the composition as described above. […] Drugs were applied using a fast, computer controlled pressure-driven 8-channel system (ValveLink8; AutoMate Scientific, San Francisco, Calif.).
FIG. 11B summarizes the effect of adding rhPRL on Icap of cultured TG neurons from male, female and OVX female rats. Number of recorded neurons and neurons in which effects were observed are indicated above the bars. The recordings were performed in whole-cell voltage clamp c(Vh=−60 mV) configuration. Solutions are SES and SIS.

Molecule | PRL sensitization of capsaicin nocifensive behavior ([1]; OVX female rats treated with estradiol) | effect of PRL pretreatment on capsaicin potency (Icap) ([2]; PRL 40 nM 60 sec, single capsaicin pulse 0.1 nM-5 μM, female rat TG neurons) | concentration of maximal potentiation of Icap ([2]; TRPV1-desensitized TG neurons from naive female rats, 100 nM capsaicin) | EC50 ([2]; TRPV1-desensitized TG neurons from naive female rats, 100 nM capsaicin, read-out: EC50 of Icap sensitization) | effect on Icap ([2]; rat OVX TG neurons) | capsaicin-responsiveness (eye wiping) ([1]; OVX female rats, PRL pretreatment) | capsaicin-mediated nocifensive response ([1]; age-matched male rats, PRL pretreatment) | capsaicin-mediated nocifensive behavior (eye wiping) ([1]; proestrous rats, PRL 1 μg/μl 40 μl on cornea, then 0.01% capsaicin)
C[C@]12CC[C@@H]3c4ccc(O)cc4CC[C@H]3[C@@H]1CC[C@@H]2O [estradiol, 17-β-estradiol] | restores PRL sensitization of capsaicin nocifensive behavior | – | – | – | – | – | – | –
B1 | – | increased capsaicin potency | 40 nM | 0.27 nM | had no observed effect | no change in capsaicin-responsiveness was observed | influences nociceptor sensitization in male rats | significantly increases capsaicin-mediated nocifensive behavior
